Measured values as given in US20040072736A1 (Boehringer Ingelheim, published 2004).
Bridges are numbered along the chain shown (N, C = ends).

Target: T1, human glucagon receptor (human, UniProt P47871 26-477)
T1 construct: whole, on cells; The assay used plasma membranes from stably transfected BHK-21 cells; also called cloned human glucagon receptor
Test: competition radioligand binding; displacement of 125I-glucagon from BHK-21 membranes with the human glucagon receptor; filtration
Experimental: Binding of peptides to the glucagon receptor was assayed in a competition binding-assay using a membrane fraction containing the cloned human glucagon receptor and radiolabeled glucagon.
For measuring competition with glucagon binding, 20 μg of the membrane suspension were incubated for 60 minutes in covered microtiter plates (Optiplate, Packard Instruments) with 50.000 cpm 125I-glucagon (Amersham Pharmacia), and one concentration of the test compound in a total volume of 100 μl. The protein-bound radioactivity is separated from unbound ligand by filtration and washing on a Multiscreen-Vakuumfiltrationsystem (Millipore) using GC/B filters (Packard) and measured after addition of 20 μl Microscint 20 in a topcount scintillation counter (Packard). The non-specific binding is defined as radioactivity bound in the presence of 1 μM glucagon (Wherl GmbH).

T1 sequence (P47871 26-477): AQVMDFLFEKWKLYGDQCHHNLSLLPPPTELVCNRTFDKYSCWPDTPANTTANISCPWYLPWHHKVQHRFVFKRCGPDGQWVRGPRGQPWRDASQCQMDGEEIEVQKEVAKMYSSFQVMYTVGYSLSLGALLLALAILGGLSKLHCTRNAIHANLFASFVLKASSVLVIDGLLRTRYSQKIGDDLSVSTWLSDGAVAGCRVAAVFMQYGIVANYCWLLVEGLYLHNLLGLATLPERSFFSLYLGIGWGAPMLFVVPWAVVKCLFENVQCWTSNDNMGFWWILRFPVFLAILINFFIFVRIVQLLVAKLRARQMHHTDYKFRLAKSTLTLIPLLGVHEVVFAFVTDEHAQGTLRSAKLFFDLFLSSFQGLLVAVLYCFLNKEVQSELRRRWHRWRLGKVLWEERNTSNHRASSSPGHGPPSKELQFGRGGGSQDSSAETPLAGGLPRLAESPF

Binder | IC50 [nM]
GLPWGCPSDIPGWNTPWAC-OH (disulfide 6-19; lactam N-9; SMILES CC[C@H](C)[C@@H]1NC(=O)[C@@H]2CC(=O)NCC(=O)N[C@@H](CC(C)C)C(=O)N3CCC[C@H]3C(=O)N[C@@H](Cc3c[nH]c4ccccc34)C(=O)NCC(=O)N[C@@H](CSSC[C@@H](C(=O)O)NC(=O)[C@H](C)NC(=O)[C@H](Cc3c[nH]c4ccccc34)NC(=O)[C@@H]3CCCN3C(=O)[C@H]([C@@H](C)O)NC(=O)[C@H](CC(N)=O)NC(=O)[C@H](Cc3c[nH]c4ccccc34)NC(=O)CNC(=O)[C@@H]3CCCN3C1=O)C(=O)N1CCC[C@H]1C(=O)N[C@@H](CO)C(=O)N2) [bicyclic nonadecapeptide of Example 1 (SEQ ID NO. 5), free acid (R = H)] | 100
GLPWGCPSDIPGWNTPWAC-OMe (disulfide 6-19; lactam N-9; SMILES CC[C@H](C)[C@@H]1NC(=O)[C@@H]2CC(=O)NCC(=O)N[C@@H](CC(C)C)C(=O)N3CCC[C@H]3C(=O)N[C@@H](Cc3c[nH]c4ccccc34)C(=O)NCC(=O)N[C@@H](CSSC[C@@H](C(=O)OC)NC(=O)[C@H](C)NC(=O)[C@H](Cc3c[nH]c4ccccc34)NC(=O)[C@@H]3CCCN3C(=O)[C@H]([C@@H](C)O)NC(=O)[C@H](CC(N)=O)NC(=O)[C@H](Cc3c[nH]c4ccccc34)NC(=O)CNC(=O)[C@@H]3CCCN3C1=O)C(=O)N1CCC[C@H]1C(=O)N[C@@H](CO)C(=O)N2) [methyl ester of the bicyclic nonadecapeptide of Example 1] | 135
